Results published in patent US20250269058A1, “GENE THERAPY FOR TREATING NEURODEGENERATIVE DISEASES” (ABRAIN, priority 2021, published 2025).

Legend:
[1] = ThT assay of autoaggregation of Aβ42 WT or variant peptides; assay type: physicochemical; details: 10 μM peptide in PBS, 50 μM ThT, 37° C.
Description: HFIP was evaporated overnight in a fume hood and then transferred to SpeedVac for 1 hour to remove any remaining traces of HFIP, Tubes containing the peptide film were kept over desiccant at −20° C. until used. Immediately prior to experimental use, lyophilized peptides were dissolved in 0.1% NH4OH to a final concentration of 100 μM and sonicated for 10 minutes in a bath sonicator.
ThT fluorescence was measured using a Biotek Synergy H1 reader at an excitation wavelength of 440 nm and emission wavelength of 485 nm. Reactions were incubated at 37° C. and then shaken for 5 seconds every 10 minutes prior to reading the fluorescence.

human Tau 40 WT = target: T1, human Tau 40 WT (Homo sapiens, UniProt P10636); experiment: ThT assay, inhibition of human Tau 40 WT autoaggregation by Tau inhibitor; assay type: biochemical; details: 15 μM Tau protein and 30 μM inhibitor (1:2)
T1 construct: His tag (inferred from Ni-NTA purification and pQE80 vector); made in house; host or cells: E. coli BL21-DE3
Description: (§1) All inhibitor peptides were purchased from Biomatik. Dissolution was performed at a working concentration of 1.2 mM in deionized water, with a minimum purity of 95% or higher. Human Tau 40 WT was expressed by the pQE80 vector in BL21-DE3 E. coli cells grown to OD600=0.8 in LB medium. Cells were induced with 1 mM IPTG for 3 hours at 37° C. and further incubated for 4 hours, and then cultured E. coli cells were harvested by centrifugation at 5,000 rpm for 20 minutes. The obtained E. coli was resuspended in a dissolution buffer (50 mM NaH2PO4, NaCl 250 mM, 10 mM imidazole pH 8.0) and then dissolved by sonication. Cell lysates were purified by centrifugation at 15,000 rpm for 15 minutes, and 1 ml of 50% Ni-NTA slurry was added to 4 ml of the supernatant and shaken at 4° C. for 60 minutes (200 rpm on a rotator) to mix gently. […]
(§2) Autoaggregation of human Tau 40 WT or Tau inhibitor was tested using 15 μM of human Tau 40 WT protein or 30 μM of inhibitor (SEQ ID NOs: 22 or 32), 8 μM heparin, and 50 μM ThT. ThT fluorescence was measured using a Biotek Synergy H1 reader at an excitation wavelength of 440 nm and emission wavelength of 485 nm. The reactions were incubated at 37° C., and measured every 15 minutes for 70 hours with orbital vibration of 425 cpm continuously. […]

[2] = ThT assay of autoaggregation of human Tau 40 WT or Tau inhibitor; assay type: physicochemical
Description: as §1, §2

T1 sequence (P10636 1-441 isoform P10636-8): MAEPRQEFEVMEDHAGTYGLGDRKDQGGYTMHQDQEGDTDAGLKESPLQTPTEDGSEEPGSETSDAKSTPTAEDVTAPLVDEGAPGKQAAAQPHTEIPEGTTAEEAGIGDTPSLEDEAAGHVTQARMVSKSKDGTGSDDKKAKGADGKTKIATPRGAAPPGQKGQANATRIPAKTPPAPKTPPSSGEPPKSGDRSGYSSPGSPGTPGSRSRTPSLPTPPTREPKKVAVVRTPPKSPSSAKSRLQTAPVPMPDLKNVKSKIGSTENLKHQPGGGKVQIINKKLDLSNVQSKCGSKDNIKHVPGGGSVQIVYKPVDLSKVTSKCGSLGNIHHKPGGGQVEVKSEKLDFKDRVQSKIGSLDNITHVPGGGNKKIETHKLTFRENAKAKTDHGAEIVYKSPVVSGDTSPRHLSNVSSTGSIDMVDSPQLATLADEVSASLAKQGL

Substance: Aβ42 WT: wild-type Aβ42 peptide, synthetic, purchased from Biomatik
- autoaggregation in ThT assay [1]: generated aggregation

Substance: MDVQMINKKLK (Tau inhibitor) [SEQ ID NO: 22]
- inhibition of Tau WT aggregation (competition assay) (human Tau 40 WT): completely attenuated the aggregation of Tau WT

Substance: TVIVITLVMLKDVQMINKKLK (Tau inhibitor) [SEQ ID NO: 32]
- inhibition of Tau WT aggregation (competition assay) (human Tau 40 WT): completely attenuated the aggregation of Tau WT

Substance: Tau WT: Human Tau 40 WT protein expressed by the pQE80 vector in E. coli
- time to peak of ThT binding ([2]; 1 nM of seed added to Tau WT): ≤ 20 h
- time to peak of ThT binding ([2]; 15 μM human Tau 40 WT, 8 μM heparin, 50 μM ThT): ≤ 70 h
